In US20200308591A1, “PROMOTER REGION ANALYSIS METHODS AND CELLS FOR PRACTICING SAME” (Eurofins DiscoverX Corporation, priority 2019, published 2020):

How the values were obtained:
CD40 receptor [1] = target: T1, CD40 receptor (Homo sapiens, UniProt P25942); assay: NFkB EFC reporter assay cells, CD40L stimulation (FIG. 7); format: cell-based; conditions: 3h or 6h incubation
T1 construct: The cells also endogenously express CD40 (receptor); endogenous in cells; host or cells: U2OS
From the text: Often multiple ligands acting through different cellular receptors will stimulate the same signaling pathway allowing the same EFC reporter assay to be used to study the function and inhibition of function for these multiple ligands. For example, in FIGS. 4-6 stimulation and inhibition of TNFα-stimulated NFkB signaling and gene expression was studied.

CD40 receptor [2] = target: T1, CD40 receptor; assay: EFC-based versus Luciferase NFκB transcriptional reporter assay, CD40L; format: cell-based; conditions: 6h stimulation
Protocol: FIG. 13. […] U2OS cells stably transfected with a plasmid encoding an NFκB transcriptional response element driving expression of either the EFC reporter (left panel) or (Firefly) Luciferase-PEST were stimulated with a range of concentrations of CD40L for 6h followed by cell lysis, addition of excess EA, incubation for 1h and determination of luminescence (RLU). The luminescence detected indicates the extent of induction of the respective carrier protein by CD40L.
The EFC-based NFκB transcriptional reporter assay was over 35 times more sensitive to CD40L than the luciferase-based assay. Note that the reporter plasmids used to make the stable cell lines had identical elements with the only significant difference being the identity of the carrier protein. Specifically, both plasmids had the same promoter elements and both had the same protein destabilizing element (PEST sequence).

[3] = test system: NFκB (nuclear factor NF-kappa-B p100 subunit) pathway; assay: U2OS NFκB pathway reporter cell line (Example 7); format: cell-based; conditions: 5000 cells/well; 360 min at 37 °C
From the text: A reporter cell line was engineered to express an Enzyme Donor (ED) tagged carrier protein controlled by a pathway-inducible transcriptional response element. Pathway activation results in induced expressions of the ED-tagged protein. Addition of exogenous Enzyme Acceptor (EA), and buffer, lyses the cell and forces complementation of the ED and EA enzyme fragments.
In this example, the cell line is an NFκB (nuclear factor NF-kappa-B p100 subunit) pathway reporter cell line. The cells are U2OS cells that include a nucleic acid encoding a β-galactosidase donor fragment (ED) having the amino acid sequence […] (SEQ ID NO:30) operably coupled to a promoter region comprising an NFκB response element.
(§1) Cells were plated in a 96-well plate and incubated at 37° C. and 5% CO2 to allow the cells to attach and grow. Cells were then stimulated with a control agonist (here, CD40L), using the assay conditions described below. Following stimulation, signal was detected using the PathHunter® ProLabel®/ProLink™ Detection Kit (Eurofins DiscoverX Corporation) according to the recommended protocol.

CD40 receptor [4] = target: T1, CD40 receptor; assay: U2OS NF-κB pathway reporter assay with carrier protein (Example 12); format: cell-based; conditions: 5000 cells/well; 6 h at 37 °C
From the text: (§2) A reporter cell line was engineered to express a carrier protein-Enzyme Donor (ED) tagged carrier protein controlled by a pathway-inducible transcriptional response element. Pathway activation results in induced expressions of the carrier protein-ED-tagged protein. Addition of exogenous Enzyme Acceptor (EA), and buffer, lyses the cell and forces complementation of the ED and EA enzyme fragments.
In this example, the cell line is a NFκB (nuclear factor NF-kappa-B p100 subunit) pathway reporter cell line. The cells are U2OS cells that include a nucleic acid encoding a reporter fragment and β-galactosidase donor fragment (ED) having the amino acid sequence […] (SEQ ID NO:30) operably coupled to a promoter region comprising a NFκB response element. The cells also endogenously express CD40 (receptor).
as §1

[5] = target: T2, RANK (Receptor activator of nuclear factor κ B receptor) co-expressed in U2OS NFκB pathway reporter cells (UniProt Q9Y6Q6); assay: cell-based or functional assay
T2 sequence (looked up): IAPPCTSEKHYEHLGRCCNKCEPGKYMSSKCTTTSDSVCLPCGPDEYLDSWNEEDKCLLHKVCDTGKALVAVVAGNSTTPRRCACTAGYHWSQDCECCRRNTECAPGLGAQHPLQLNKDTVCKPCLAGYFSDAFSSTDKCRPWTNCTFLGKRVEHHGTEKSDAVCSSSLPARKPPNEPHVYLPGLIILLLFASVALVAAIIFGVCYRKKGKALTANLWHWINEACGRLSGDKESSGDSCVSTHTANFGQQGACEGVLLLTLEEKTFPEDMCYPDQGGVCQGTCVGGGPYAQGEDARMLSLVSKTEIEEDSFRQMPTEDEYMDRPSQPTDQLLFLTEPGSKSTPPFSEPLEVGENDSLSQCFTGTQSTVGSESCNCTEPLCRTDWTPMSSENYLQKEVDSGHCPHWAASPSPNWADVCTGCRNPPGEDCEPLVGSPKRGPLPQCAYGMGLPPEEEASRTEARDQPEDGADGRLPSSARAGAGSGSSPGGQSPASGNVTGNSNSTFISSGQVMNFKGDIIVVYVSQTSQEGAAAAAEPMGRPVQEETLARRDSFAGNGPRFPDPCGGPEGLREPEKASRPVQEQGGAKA

[6] = target: T3, RANK (Receptor activator of nuclear factor κ B receptor) (Homo sapiens, UniProt Q9Y6Q6); assay: U2OS RANK-NFκB pathway reporter assay (Example 13); format: cell-based; conditions: 5000 cells/well; 16 h at 37 °C
T3 construct: expressed in transfected cells; host or cells: U2OS
T3 sequence (Q9Y6Q6 30-616): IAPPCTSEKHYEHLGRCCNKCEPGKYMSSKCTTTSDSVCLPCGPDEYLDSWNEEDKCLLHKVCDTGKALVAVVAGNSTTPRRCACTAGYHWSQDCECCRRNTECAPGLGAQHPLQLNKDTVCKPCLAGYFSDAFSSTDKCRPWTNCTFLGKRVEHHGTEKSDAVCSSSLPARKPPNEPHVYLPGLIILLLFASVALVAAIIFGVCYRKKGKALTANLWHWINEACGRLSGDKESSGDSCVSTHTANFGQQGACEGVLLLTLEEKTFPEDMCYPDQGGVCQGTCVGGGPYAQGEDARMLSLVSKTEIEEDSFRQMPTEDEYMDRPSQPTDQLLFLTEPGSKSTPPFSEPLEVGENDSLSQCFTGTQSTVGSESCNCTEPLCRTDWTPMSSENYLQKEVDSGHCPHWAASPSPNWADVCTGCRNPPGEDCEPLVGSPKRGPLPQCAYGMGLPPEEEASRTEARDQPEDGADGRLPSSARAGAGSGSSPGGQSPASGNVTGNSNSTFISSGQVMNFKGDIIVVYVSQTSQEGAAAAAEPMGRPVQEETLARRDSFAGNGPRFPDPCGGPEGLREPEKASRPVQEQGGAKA
From the text: as §2
In this example, the cell line is a NFκB (Nuclear factor NF-kappa-B p100 subunit) pathway reporter cell line. The cells are U2OS cells that include a nucleic acid encoding a reporter fragment and β-galactosidase donor fragment (ED) having the amino acid sequence […] (SEQ ID NO:30) operably coupled to a promoter region comprising a NFκB response element. To produce the RANK-NFκB reporter assay RANK (Receptor activator of nuclear factor κ B receptor) is co-expressed in the above-developed U2OS NFκB Pathway Reporter cells.
Cells were plated in a 96-well plate and incubated at 37° C. and 5% CO2 to allow the cells to attach and grow. Cells were then stimulated with a control agonist (here, sRANKL), using the assay conditions described below. Following stimulation, signal was detected using the PathHunter® ProLabel®/ProLink™ Detection Kit (Eurofins DiscoverX Corporation) according to the recommended protocol.

RANK = assay: Comparison of U2OS NF-κB and U2OS RANK-NF-κB reporter cell lines (Example 16); format: cell-based; conditions: FIG. 24b versus FIG. 24a
From the text: Two reporter cell lines were engineered to express a carrier protein-Enzyme Donor (ED) tagged carrier protein controlled by a pathway-inducible transcriptional response element. Pathway activation results in induced expressions of the carrier protein-ED-tagged protein. Addition of exogenous Enzyme Acceptor (EA), and buffer, lyses the cell and forces complementation of the ED and EA enzyme fragments.
In this example, a first cell line is a U2OS-NF-κB pathway reporter cell line and the second cell line is U2OS RANK-NF-κB cell line. The cells are U2OS for both the cell lines as prepared in this example 16. The U2OS-NF-κB cell line includes a nucleic acid encoding a reporter fragment and β-galactosidase donor fragment (ED) having the amino acid sequence […] (SEQ ID NO:30) operably coupled to a promoter region comprising a NFκB response element. The U2OS RANK-NF-κB cell line includes a nucleic acid encoding a reporter fragment and β-galactosidase donor fragment (ED) having the amino acid sequence […] (SEQ ID NO:30) operably coupled to a promoter region comprising a NFκB response element followed by co-expression of RANK-CD27 (receptor) in the above-developed U2OS NF-κB pathway reporter cell line.
Assay results for U2OS NF-κB cell line with CD40L ligand is shown in FIG. 24a and assay results for U2OS RANK NF-κB cell line with sRANK ligand is shown in FIG. 24b.

T1 sequence (P25942 21-277): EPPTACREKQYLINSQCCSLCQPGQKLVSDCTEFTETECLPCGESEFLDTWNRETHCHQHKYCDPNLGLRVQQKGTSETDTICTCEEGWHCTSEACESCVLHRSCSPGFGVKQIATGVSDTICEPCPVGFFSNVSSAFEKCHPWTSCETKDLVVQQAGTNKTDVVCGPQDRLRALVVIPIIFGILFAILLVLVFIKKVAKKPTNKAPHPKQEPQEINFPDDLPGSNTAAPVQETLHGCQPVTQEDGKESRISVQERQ

Row | Molecule | response of endogenous CD40 receptor to ligand (CD40 receptor [1]) | sensitivity of EFC-based assay relative to luciferase-based assay (CD40 receptor [2]) | EC50 for control agonist stimulation [3] | signal:background ratio at agonist EMAX [3] | EC50 for control agonist stimulation (CD40 receptor [4]) | signal:background ratio (CD40 receptor [4]) | EC50 for control agonist stimulation, U2OS RANK-NFκB pathway reporter cell line [5] | signal:background ratio, U2OS RANK-NFκB pathway reporter cell line [5] | EC50 for control agonist stimulation [6] | signal:background ratio [6] | EC50 compared with U2OS NF-κB cell line with CD40L (RANK) | signal:background ratio compared with U2OS NF-κB cell line with CD40L (RANK)
1 | CD40L: CD40 ligand, control agonist acting through the CD40 receptor | responded robustly | over 35 times | 225.4 ng/mL | 26.3 | 88.6 ng/mL | 102.8 |  |  |  |  |  | 
2 | soluble RANKL (ligand, UniProt O14788 143-317, looked up) EKAMVDGSWLDLAKRSKLEAQPFAHLTINATDIPSGSHKVSLSSWYHDRGWAKISNMTFSNGKLIVNQDGFYYLYANICFRHHETSGDLATEYLQLMVYVTKTSIKIPSSHTLMKGGSTKYWSGNSEFHFYSINVGGFFKLRSGEEISIEVSNPSLLDPDQDATYFGAFKVRDID |  |  |  |  |  |  | 4.03 ng/mL | 24 | 4.034 ng/mL | 24.0 | lower EC50 | larger signal:background ratio
